According to patent publication US10052364B2, “Osteocalcin as a treatment for cognitive disorders” (THE TRUSTEES OF COLUMBIA UNIVERSITY IN THE CITY OF NEW YORK, priority 2013, dated 2018):

Key:
[1] = Blood brain barrier crossing: subcutaneous osteocalcin infusion, content measured in blood, bone and parts of the brain by ELISA; assay type: in vivo, mouse; conditions: subcutaneous pump, uncarboxylated osteocalcin 50 ng/hour, seven days, three-month-old Osteocalcin-/- mice
Description: FIG. 3. Osteocalcin binds to neurons in the brain. (A) Measurement of the total osteocalcin in 3 month-old Osteocalcin^−/− mice infused subcutaneously for 7 days with either uncarboxylated osteocalcin (300 ng/hour, right panel) or PBS (left panel). Osteocalcin levels were measured in bone, serum, and different parts of the brain (cortex, midbrain, hypothalamus, brainstem, and cerebellum). (B) Subcutaneous infusion of leptin ([…], right panel) or PBS (left panel) for 7 days in ob/ob mice. Leptin levels were measured in serum, cortex, midbrain, hypothalamus, brainstem, and cerebellum. […]
Osteocalcin^−/−, Gprc6a^−/−, Osteocalcin-mCherry, and Osteocalcin floxed mice have been previously described (Ducy et al., 1996, Nature 382:448-452; Oury et al., 2011, Cell 144:796-809). Mouse genotypes were determined by PCR. […] Leptin and osteocalcin content in sera and tissues were determined by ELISA.
To understand how this behavioral phenotype develops, whether osteocalcin crosses the blood brain barrier (BBB) was tested by installing pumps that subcutaneously delivered vehicle or uncarboxylated osteocalcin (50 ng/hour) in three-month-old Osteocalcin^−/− mice. […] Seven days later, osteocalcin and leptin content were measured in blood, bone, and in various parts of the brain in Osteocalcin−/− and ob/ob mice, respectively. […]

aged WT mice = experiment: ICV infusion in aged WT mice, Novel Object Recognition test; assay type: in vivo, mouse; conditions: ICV 10 ng/hr for one month, 16 month old WT mice
Description: FIG. 9. Osteocalcin improves hippocampal function in aged wild-type (WT) mice. Constant and novel object investigation in the Novel Object Recognition test in 17 month old mice treated for 1 month with vehicle or 10 ng/hr recombinant uncarboxylated osteocalcin.
ICV pumps delivering (10 ng/hr) recombinant uncarboxylated full-length mouse osteocalcin were implanted in 16 month old WT mice. After an infusion period of one month, the mice were subjected to a modified version of the Novel Object Recognition test, to assay memory and hippocampal function. Briefly, mice were given five 5 minute exposures, with 3 minute resting intervals between exposures, to a novel arena containing two objects. During exposures 1-4, mice were habituated to these two objects, which elicited equal amounts of exploration. In the fifth exposure, one of the objects was replaced with a novel object.

[2] = test system: neurons in the brain (WT brain sections); experiment: Binding of biotinylated osteocalcin to brain sections (anti-biotin immunofluorescence, competition); design: species or system mouse
Description: FIG. 3. Osteocalcin binds to neurons in the brain. (A) Measurement of the total osteocalcin in 3 month-old Osteocalcin^−/− mice infused subcutaneously for 7 days with either uncarboxylated osteocalcin (300 ng/hour, right panel) or PBS (left panel). Osteocalcin levels were measured in bone, serum, and different parts of the brain (cortex, midbrain, hypothalamus, brainstem, and cerebellum). (B) Subcutaneous infusion of leptin ([…], right panel) or PBS (left panel) for 7 days in ob/ob mice. Leptin levels were measured in serum, cortex, midbrain, hypothalamus, brainstem, and cerebellum. (C) Binding of GST-biotin (30 μg/ml) (panel 1) and biotinylated osteocalcin (300 ng/ml) (panels 2-4) to the dorsal (DR) and median (MR) raphe nuclei of the brainstem (identified by anti-5-HT immunofluorescence), to the ventral tegmental area (VTA) of the midbrain (identified by anti-TH immunofluorescence), and to the CA3 and CA4 of the hippocampus (identified anatomically). […] Binding with GST-biotin, osteocalcin-biotinylated, and competition assays were performed on adjacent sections. (D) Expression of Tph2 and GAD 1 in brainstem, and Th in midbrain explants from WT and Gprc6a^−/− mice, treated with 10 ng/ml osteocalcin or vehicle. (E) Gene expression in WT primary hindbrain neuron cultures treated with 10 ng/ml osteocalcin or vehicle. (F) Calcium flux response of primary hindbrain cultured neurons to osteocalcin treatment. (G-H) Extracellular current recordings of (G) neurons of the dorsal raphe nucleus and (H) GABAergic interneurons of the brainstem treated with osteocalcin (10 ng/ml).
Brains from 8-week-old mice were snap-frozen in isopentane, and […] thick sections were prepared and desiccated overnight at 4° C. under vacuum. On the following day, sections were rehydrated in ice-cold binding buffer (50 mM TrisHCl [pH 7.4], 10 mM MgCl2, 0.1 mM EDTA and 0.1% BSA) for 15 min and incubated for 1 hr in the presence of biotinylated osteocalcin (3, 30, 300, 3000 ng/ml) or biotynylated recombinant GST as a control ([…]). After washing in harvesting buffer (50 mM Tris-HCl, pH 7.4), samples were fixed in 4% paraformaldehyde for 15 min, washed in PBS and incubated with goat anti-biotin antibody (1:1000, Vector laboratories) over night at 4° C. Signal was visualized by incubating with anti-goat IgG Cy-3 using Leica DM 5000B microscope (Leica). The binding assays were perform on adjacent sections for each conditions tested.
This accumulation in discrete regions of the brain raised the question of whether osteocalcin binds to specific neurons in the brain. This was tested by incubating sections of adult or embryonic (E18.5) WT brains with biotinylated undercarboxylated osteocalcin or GST-biotin alone (30 μg/ml), followed by immunofluorescence analysis using an anti-biotin antibody. […]

[3] = biotinylated undercarboxylated osteocalcin, WT brain sections

- binding in the brainstem [2, 3]: bound to neurons of the raphe nuclei
- specificity of binding in the midbrain and brainstem (competition) ([2]; excess of unlabeled osteocalcin versus excess of GST): specific
B1: uncarboxylated osteocalcin: Recombinant osteocalcin bacterially produced, cleaved from the GST subunit; completely undercarboxylated at all three sites (protein, listed as Homo sapiens)
chain: MRALTLLALLALAALCIAGQAGAKPSGAESSKGAAFVSKQEGSEVVKRPRRYLYQWLGAPVPYPDPLEPRREVCELNPDCDELADHIGFQEAYRRFYGPV
modifications: uncarboxylated
notes: Recombinant osteocalcin bacterially produced, cleaved from the GST subunit; completely undercarboxylated at all three sites
- osteocalcin concentration in brainstem, thalamus and hypothalamus relative to that observed in serum [1]: ~50%
- discrimination between novel and constant objects (aged WT mice): able to discriminate between the novel and constant objects
- binding in the midbrain [2, 3]: bound to the ventral tegmental area and the substantia nigrae
- binding to neuronal populations of the brain ([2]; biotinylated undercarboxylated osteocalcin, adult or E18.5 WT brain sections): bound to several neuronal populations in the forebrain, midbrain, and brainstem
